Laboratory results reported in patent US20070129319.
Substitutions are numbered along the chain they refer to.

B1: GST-DUB-1 fusion protein (pGEX-DUB-1) (protein)
chain: MVVALSFPEADPALSSPDAPELHQDEAQVVEELTVNGKHSLSWESPQGPGCGLQNTGNSCYLNAALQCLTHTPPLADYMLSQEHSQTCCSPEGCKLCAMEALVTQSLLHSHSGDVMKPSHILTSAFHKHQQEDAHEFLMFTLETMHESCLQVHRQSKPTSEDSSPIHDIFGGWWRSQIKCLLCQGTSDTYDRFLDIPLDISSAQSVKQALWDTEKSEELCGDNAYYCGKCRQKMPASKTLHVHIAPKVLMVVLNRFSAFTGNKLDRKVSYPEFLDLKPYLSEPTGGPLPYALYAVLVHDGATSHSGHYFCCVKAGHGKWYKMDDTKVTRCDVTSVLNENAYVLFYVQQANLKQVSIDMPEGRINEVLDPEYQLKKSRRKKHKKKSPFTEDLGEPCENRDKRAIKETSLGKGKVLQEVNHKKAGQKHGNTKLMPQKQNHQKAGQNLRNTEVELDLPADAIVIHQPRSTANWGRDSPDKENQPLHNADRLLTSQGPVNTWQLCRQEGRRRSKKGQNKNKQGQRLLLVC
B2: GST-DUB-1C60S fusion protein (pGEX-DUB-1 (C60)) (protein)
chain: B1 chain with C60S

Assays:
[1] = tested on: ubiquitin-Met-beta-galactosidase fusion protein
[2] = target: ubiquitin-Met-beta-galactosidase fusion protein; remark: listed apart in the source

Row | Molecule | cleavage of ubiquitin from the ubiquitin-Met-beta-galactosidase fusion protein (immunoblot with anti-beta-galactosidase) [1] | cleavage of the Ub-Met-beta-gal fusion [2]
1 | GST-DUB-3 fusion protein (pGEX-DUB-3) | DUB-3 displayed deubiquitinating activity at least equivalent to that of DUB-1 | 
2 | GST-DUB-3C89S fusion protein (pGEX-DUB-3C89S) | this activity was ablated by mutating the cysteine residue (C89S) conserved within the active site | 
3 | B1 |  | Deubiquitinating activity was demonstrated for both DUB-1 and DUB-3 fusion proteins by the cleavage of the Ub-Met-β-gal fusion
4 | B2 |  | DUB-1C60S (lane 3) and DUB-3C89S (lane 5) are catalytically inactive
